Assay results reported in patent publication US20230406921A1 (MABWELL SHANGHAI BIOSCIENCE, published 2023).

Assays:
[1] = target: T1, CD47 on the surface of tumor cells (human, UniProt Q08722 19-323); experiment: FACS, SKOV-3 tumor cells (no PD-L1), antibody 100 nM
T1 construct: whole, on cells; Same protein as m4; also called CD47 antigen on the surface of U937 and CCRF cells; SKOV-3
Method: (§1) In the experiment of analyzing the binding to human red blood cells, the antibody was used at a concentration of 1000 nM; and in the experiment of analyzing the binding to tumor cells, the antibody was used at a concentration of 100 nM.

[2] = target: T2, CD47 on the surface of human red blood cells (human, UniProt Q08722 19-323); experiment: FACS, human red blood cells, antibody 1000 nM
T2 construct: whole, on cells; Same protein as m3, on red blood cells; also called hRBC; RBC
Method: as §1

PD-L1 = PD-L1 (human, UniProt Q9NZQ7 19-239, limits assumed); experiment: Fortebio BLI
Chain of PD-L1 (Q9NZQ7 19-239 limits assumed): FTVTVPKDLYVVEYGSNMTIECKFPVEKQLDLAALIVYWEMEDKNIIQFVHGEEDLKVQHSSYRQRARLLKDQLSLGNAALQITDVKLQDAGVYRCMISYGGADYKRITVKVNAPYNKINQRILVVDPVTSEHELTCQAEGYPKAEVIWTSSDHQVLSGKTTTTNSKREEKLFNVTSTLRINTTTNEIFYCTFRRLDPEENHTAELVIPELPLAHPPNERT

[3] = target: T3, recombinant antigen of the extracellular region of CD47 (Sino Biological, Cat: 12283-H08H) (human, UniProt Q08722 19-139); experiment: Fortebio BLI
T3 construct: extracellular domain; also called recombinant CD47 extracellular region; CD47 recombinant protein

B1: anti-human CD47/PD-L1 bispecific antibody 2MW1531-m1 (bispecific antibody)
heavy 1: EVQLVQSGAEVKKPGASVKVSCKASGYKFTNYVMSWVRQAPGQRLEWMGYINPYNDAIKYNEKFTGRVTITRDTSASTAYMELSSLRSEDTAVYYCAREGDFYANYGRLGFAYWGQGTLVTVSSASTKGPSVFPLAPCSRSTSESTAALGCLVKDYFPEPVTVSWNSGALTSGVHTFPAVLQSSGLYSLSSVVTVPSSSLGTQTYTCNVDHKPSNTKVDKRVESKYGPPCPPCPAPEFLGGPSVFLFPPKPKDTLMISRTPEVTCVVVDVSQEDPEVQFNWYVDGVEVHNAKTKPREEQYNSTYRVVSVLTVLHQDWLNGKEYKCKVSNKGLPSSIEKTISKAKGQPREPQVYTLPPSQKEMTKNQVSLTCLVKGFYPSDIAVEWESNGQPENNYKTTPPVLDSDGSFFLYSKLTVDKSRWQEGNVFSCSVMHEALHNRYTQKSLSLSLGK
heavy 2: EVQLVQSGAEVKKPGATVKISCKVSGFNIKDIYMHWVQQAPGKGLEWMGRIDPANANTKYDPKFQDRVTITADTSTNTAYMELSSLRSEDTAVYYCASGQLGPLGFDYWGQGTTVTVSSASTKGPSVFPLAPCSRSTSESTAALGCLVKDYFPEPVTVSWNSGALTSGVHTFPAVLQSSGLYSLSSVVTVPSSSLGTQTYTCNVDHKPSNTKVDKRVESKYGPPCPPCPAPEFLGGPSVFLFPPKPKDTLMISRTPEVTCVVVDVSQEDPEVQFNWYVDGVEVHNAKTKPREEQYNSTYRVVSVLTVLHQDWLNGKEYKCKVSNKGLPSSIEKTISKAKGQPREPQVYTLPPSQEEMTKNQVSLTCLVKGFYPSDIAVEWESNGQPENNYKTTPPVLDSDGSFFLYSKLTVDKSRWQEGNVFSCSVMHEALHNHYTQESLSLSLGK
VL: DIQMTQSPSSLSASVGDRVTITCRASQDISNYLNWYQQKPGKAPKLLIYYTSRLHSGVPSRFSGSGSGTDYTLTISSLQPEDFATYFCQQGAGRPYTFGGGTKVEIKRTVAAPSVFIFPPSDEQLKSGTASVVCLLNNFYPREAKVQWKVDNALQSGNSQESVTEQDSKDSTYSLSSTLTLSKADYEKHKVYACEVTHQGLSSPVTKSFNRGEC
notes: Knobs-into-holes with a common light chain
Binding to tumor cells (MFI) [1]: 33300 MFI
Binding to human red blood cells (MFI) [2]: 888 MFI
Kd (PD-L1): 1.59 nM
koff (PD-L1): 0.000387 s⁻¹
kon (PD-L1): 243000 M⁻¹ s⁻¹
Kd [3]: 22.5 nM
koff [3]: 0.00213 s⁻¹
kon [3]: 94600 M⁻¹ s⁻¹

B2: anti-human CD47/PD-L1 bispecific antibody 2MW1531-m2 (bispecific antibody)
heavy 1: EVQLVQSGAEVKKPGASVKVSCKASGYKFTNYVMSWVRQAPGQRLEWMGYINPYNDAIKYNEKFTGRVTITRDTSASTAYMELSSLRSEDTAVYYCAREGDFYANYGRLGFAYWGQGTLVTVSSASTKGPSVFPLAPCSRSTSESTAALGCLVKDYFPEPVTVSWNSGALTSGVHTFPAVLQSSGLYSLSSVVTVPSSSLGTQTYTCNVDHKPSNTKVDKRVESKYGPPCPPCPAPEFLGGPSVFLFPPKPKDTLMISRTPEVTCVVVDVSQEDPEVQFNWYVDGVEVHNAKTKPREEQYNSTYRVVSVLTVLHQDWLNGKEYKCKVSNKGLPSSIEKTISKAKGQPREPQVYTLPPSQKEMTKNQVSLTCLVKGFYPSDIAVEWESNGQPENNYKTTPPVLDSDGSFFLYSKLTVDKSRWQEGNVFSCSVMHEALHNRYTQKSLSLSLGK
heavy 2: EVQLVQSGAEVKKPGATVKISCKVSGFNIKDIYMHWVQQAPGKGLEWMGRIDPANANTKYDPKFQDRVTITADTSTNTAYMELSSLRSEDTAVYYCASGQLGPLGFDYWGQGTTVTVSSASTKGPSVFPLAPCSRSTSESTAALGCLVKDYFPEPVTVSWNSGALTSGVHTFPAVLQSSGLYSLSSVVTVPSSSLGTQTYTCNVDHKPSNTKVDKRVESKYGPPCPPCPAPEFLGGPSVFLFPPKPKDTLMISRTPEVTCVVVDVSQEDPEVQFNWYVDGVEVHNAKTKPREEQYNSTYRVVSVLTVLHQDWLNGKEYKCKVSNKGLPSSIEKTISKAKGQPREPQVYTLPPSQEEMTKNQVSLTCLVKGFYPSDIAVEWESNGQPENNYKTTPPVLDSDGSFFLYSKLTVDKSRWQEGNVFSCSVMHEALHNHYTQESLSLSLGK
VL: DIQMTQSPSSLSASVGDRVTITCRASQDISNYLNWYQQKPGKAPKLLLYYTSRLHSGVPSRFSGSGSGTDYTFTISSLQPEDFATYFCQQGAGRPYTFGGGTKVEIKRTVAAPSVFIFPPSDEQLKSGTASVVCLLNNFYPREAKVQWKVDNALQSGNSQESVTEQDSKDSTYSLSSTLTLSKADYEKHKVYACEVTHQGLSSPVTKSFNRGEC
notes: as for B1
Binding to tumor cells (MFI) [1]: 29900 MFI
Binding to human red blood cells (MFI) [2]: 799 MFI
Kd (PD-L1): 3.26 nM
koff (PD-L1): 0.000696 s⁻¹
kon (PD-L1): 213000 M⁻¹ s⁻¹
Kd [3]: 81 nM
koff [3]: 0.00678 s⁻¹
kon [3]: 83700 M⁻¹ s⁻¹

B3: anti-human CD47/PD-L1 bispecific antibody 2MW1531-m4 (bispecific antibody)
heavy 1: EVQLVQSGAEVKKPGASVKVSCKASGYKFTNYVMSWVRQAPGQRLEWMGYINPYNDAIKYNEKFTGRVTITRDTSASTAYMELSSLRSEDTAVYYCAREGDFYANYGRLGFAYWGQGTLVTVSSASTKGPSVFPLAPCSRSTSESTAALGCLVKDYFPEPVTVSWNSGALTSGVHTFPAVLQSSGLYSLSSVVTVPSSSLGTQTYTCNVDHKPSNTKVDKRVESKYGPPCPPCPAPEFLGGPSVFLFPPKPKDTLMISRTPEVTCVVVDVSQEDPEVQFNWYVDGVEVHNAKTKPREEQYNSTYRVVSVLTVLHQDWLNGKEYKCKVSNKGLPSSIEKTISKAKGQPREPQVYTLPPSQKEMTKNQVSLTCLVKGFYPSDIAVEWESNGQPENNYKTTPPVLDSDGSFFLYSKLTVDKSRWQEGNVFSCSVMHEALHNRYTQKSLSLSLGK
heavy 2: EVQLVQSGAEVKKPGATVKISCKVSGFNIKDIYMHWVQQAPGKGLEWMGRIDPANANTKYDPKFQDRVTITADTSTNTAYMELSSLRSEDTAVYYCASGQLGPLGFDYWGQGTTVTVSSASTKGPSVFPLAPCSRSTSESTAALGCLVKDYFPEPVTVSWNSGALTSGVHTFPAVLQSSGLYSLSSVVTVPSSSLGTQTYTCNVDHKPSNTKVDKRVESKYGPPCPPCPAPEFLGGPSVFLFPPKPKDTLMISRTPEVTCVVVDVSQEDPEVQFNWYVDGVEVHNAKTKPREEQYNSTYRVVSVLTVLHQDWLNGKEYKCKVSNKGLPSSIEKTISKAKGQPREPQVYTLPPSQEEMTKNQVSLTCLVKGFYPSDIAVEWESNGQPENNYKTTPPVLDSDGSFFLYSKLTVDKSRWQEGNVFSCSVMHEALHNHYTQESLSLSLGK
VL: DIQMTQSPSSLSASVGDRVTITCRASQDITNYLNWYQQKPGKAPKLLLYYTSRLHSGVPSRFSGSGSGTDYTLTISSLQPEDFATYFCQQGAGRPYTFGGGTKVEIKRTVAAPSVFIFPPSDEQLKSGTASVVCLLNNFYPREAKVQWKVDNALQSGNSQESVTEQDSKDSTYSLSSTLTLSKADYEKHKVYACEVTHQGLSSPVTKSFNRGEC
notes: as for B1
Binding to tumor cells (MFI) [1]: 31100 MFI
Binding to human red blood cells (MFI) [2]: 903 MFI
Kd (PD-L1): 3.78 nM
koff (PD-L1): 0.000707 s⁻¹
kon (PD-L1): 187000 M⁻¹ s⁻¹
Kd [3]: 26.5 nM
koff [3]: 0.00321 s⁻¹
kon [3]: 121000 M⁻¹ s⁻¹

B4: anti-human CD47/PD-L1 bispecific antibody 2MW1531-m5 (bispecific antibody)
heavy 1: EVQLVQSGAEVKKPGASVKVSCKASGYKFTNYVMSWVRQAPGQRLEWMGYINPYNDAIKYNEKFTGRVTITRDTSASTAYMELSSLRSEDTAVYYCAREGDFYANYGRLGFAYWGQGTLVTVSSASTKGPSVFPLAPCSRSTSESTAALGCLVKDYFPEPVTVSWNSGALTSGVHTFPAVLQSSGLYSLSSVVTVPSSSLGTQTYTCNVDHKPSNTKVDKRVESKYGPPCPPCPAPEFLGGPSVFLFPPKPKDTLMISRTPEVTCVVVDVSQEDPEVQFNWYVDGVEVHNAKTKPREEQYNSTYRVVSVLTVLHQDWLNGKEYKCKVSNKGLPSSIEKTISKAKGQPREPQVYTLPPSQKEMTKNQVSLTCLVKGFYPSDIAVEWESNGQPENNYKTTPPVLDSDGSFFLYSKLTVDKSRWQEGNVFSCSVMHEALHNRYTQKSLSLSLGK
heavy 2: EVQLVQSGAEVKKPGATVKISCKVSGFNIKDIYMHWVQQAPGKGLEWMGRIDPANANTKYDPKFQDRVTITADTSTNTAYMELSSLRSEDTAVYYCASGQLGPLGFDYWGQGTTVTVSSASTKGPSVFPLAPCSRSTSESTAALGCLVKDYFPEPVTVSWNSGALTSGVHTFPAVLQSSGLYSLSSVVTVPSSSLGTQTYTCNVDHKPSNTKVDKRVESKYGPPCPPCPAPEFLGGPSVFLFPPKPKDTLMISRTPEVTCVVVDVSQEDPEVQFNWYVDGVEVHNAKTKPREEQYNSTYRVVSVLTVLHQDWLNGKEYKCKVSNKGLPSSIEKTISKAKGQPREPQVYTLPPSQEEMTKNQVSLTCLVKGFYPSDIAVEWESNGQPENNYKTTPPVLDSDGSFFLYSKLTVDKSRWQEGNVFSCSVMHEALHNHYTQESLSLSLGK
VL: DIQMTQSPSSLSASVGDRVTITCRASQDISNYLNWYQQKPGKAPKLLLYYTSRLHSGVPSRFSGSGSGTDYTLTISSLQPEDFATYFCQQGDGRPYTFGGGTKVEIKRTVAAPSVFIFPPSDEQLKSGTASVVCLLNNFYPREAKVQWKVDNALQSGNSQESVTEQDSKDSTYSLSSTLTLSKADYEKHKVYACEVTHQGLSSPVTKSFNRGEC
notes: as for B1
Binding to tumor cells (MFI) [1]: 30900 MFI
Binding to human red blood cells (MFI) [2]: 807 MFI
Kd (PD-L1): 1.02 nM
koff (PD-L1): 0.000357 s⁻¹
kon (PD-L1): 347000 M⁻¹ s⁻¹
Kd [3]: 10.8 nM
koff [3]: 0.00101 s⁻¹
kon [3]: 93600 M⁻¹ s⁻¹

B5: anti-human CD47/PD-L1 bispecific antibody 2MW1531-m6 (bispecific antibody)
heavy 1: EVQLVQSGAEVKKPGASVKVSCKASGYKFTNYVMSWVRQAPGQRLEWMGYINPYNDAIKYNEKFTGRVTITRDTSASTAYMELSSLRSEDTAVYYCAREGDFYANYGRLGFAYWGQGTLVTVSSASTKGPSVFPLAPCSRSTSESTAALGCLVKDYFPEPVTVSWNSGALTSGVHTFPAVLQSSGLYSLSSVVTVPSSSLGTQTYTCNVDHKPSNTKVDKRVESKYGPPCPPCPAPEFLGGPSVFLFPPKPKDTLMISRTPEVTCVVVDVSQEDPEVQFNWYVDGVEVHNAKTKPREEQYNSTYRVVSVLTVLHQDWLNGKEYKCKVSNKGLPSSIEKTISKAKGQPREPQVYTLPPSQKEMTKNQVSLTCLVKGFYPSDIAVEWESNGQPENNYKTTPPVLDSDGSFFLYSKLTVDKSRWQEGNVFSCSVMHEALHNRYTQKSLSLSLGK
heavy 2: EVQLVQSGAEVKKPGATVKISCKVSGFNIKDIYMHWVQQAPGKGLEWMGRIDPANANTKYDPKFQDRVTITADTSTNTAYMELSSLRSEDTAVYYCASGQLGPLGFDYWGQGTTVTVSSASTKGPSVFPLAPCSRSTSESTAALGCLVKDYFPEPVTVSWNSGALTSGVHTFPAVLQSSGLYSLSSVVTVPSSSLGTQTYTCNVDHKPSNTKVDKRVESKYGPPCPPCPAPEFLGGPSVFLFPPKPKDTLMISRTPEVTCVVVDVSQEDPEVQFNWYVDGVEVHNAKTKPREEQYNSTYRVVSVLTVLHQDWLNGKEYKCKVSNKGLPSSIEKTISKAKGQPREPQVYTLPPSQEEMTKNQVSLTCLVKGFYPSDIAVEWESNGQPENNYKTTPPVLDSDGSFFLYSKLTVDKSRWQEGNVFSCSVMHEALHNHYTQESLSLSLGK
VL: DIQMTQSPSSLSASVGDRVTITCRASQDISNYLNWYQQKPGKAPKLLLYYTSRLHSGVPSRFSGSGSGTDYTLTISSLQPEDFATYFCQQGATRPYTFGGGTKVEIKRTVAAPSVFIFPPSDEQLKSGTASVVCLLNNFYPREAKVQWKVDNALQSGNSQESVTEQDSKDSTYSLSSTLTLSKADYEKHKVYACEVTHQGLSSPVTKSFNRGEC
notes: as for B1
Binding to tumor cells (MFI) [1]: 24700 MFI
Binding to human red blood cells (MFI) [2]: 912 MFI
Kd (PD-L1): 1.73 nM
koff (PD-L1): 0.000496 s⁻¹
kon (PD-L1): 287000 M⁻¹ s⁻¹
Kd [3]: 84.5 nM
koff [3]: 0.00879 s⁻¹
kon [3]: 104000 M⁻¹ s⁻¹
